According to paper PMC5113203:

Molecular target: human lysyl-tRNA synthetase anticodon-binding domain (hLysRS ACB) (Homo sapiens, UniProt Q15046 91-216)
Assay: fluorescence anisotropy

Sequence of human lysyl-tRNA synthetase anticodon-binding domain (hLysRS ACB) (Q15046 91-216): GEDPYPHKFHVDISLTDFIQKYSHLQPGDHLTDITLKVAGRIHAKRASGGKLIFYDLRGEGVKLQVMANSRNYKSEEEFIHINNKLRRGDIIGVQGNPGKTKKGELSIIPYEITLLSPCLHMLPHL

CCCCCCCCC (ssRNA) [C9]
binding signal: ~100 fold lower affinity than U9
